Measured values as given in article PMC7015924.

System: His-SUMO-Piwi PAZ domain (Drosophila melanogaster)
Assay: ITC
Conditions: 2'-O-methyl at 3' end; ITC buffer not in material (PAZ purified in 10 mM Tris-HCl pH 8.0, 500 mM NaCl); cleavage assays 27 C, 17 h (bead/supernatant assay conditions not given) …

Q: How did the Kd turn out when 8-mer RNA with 3' 2'-O-methyl was run?
A: Its Kd is 4 µM.
